Consider six molecules from paper PMC6947424, “New Targeted Gold Nanorods for the Treatment of Glioblastoma by Photodynamic Therapy” (Journal of Clinical Medicine, 2019).

No end group written: not given here. *: point of attachment. Pyropheophorbide(a) = C=Cc1c(C)c2cc3nc(c4c5[nH]c(cc6nc(cc1[nH]2)C(C)=C6CC)c(C)c5C(=O)C4)[C@@H](CCC(=O)*)[C@@H]3C; Hexanoyl(6-maleimido) = O=C1C=CC(=O)N1CCCCCC(=O)*

For series [1] the following is noted: in toluene; ref [72]; cited from earlier work. Here is the method:
Fluorescence quantum yields (Φf) were determined using a tetraphenyl porphyrin (TPP) solution as the fluorescence standard (Φf = 0.11 in toluene, taking into account solvent refractive index and absorption efficiencies. For the direct determination of ^1O2 quantum yield (ΦΔ), excitation was performed with a Xe-arc, the light was separated in a SPEX 1680, 0.22 µm double monochromator. Detection at 1270 nm was carried out through a PTI S/N 1565 monochromator and the emission was monitored by a liquid nitrogen cooled Ge-detector (EO-817L, North Coast Scientific Co, OH, USA). Rose Bengal (R ... || These findings are also consistent with the Φf value of Pyro reported by other authors (Φf = 0.3 and in methanol). […] This property can serve in the ...

The conditions of series [2]: in EtOH; ref [73]; cited from earlier work. Here is the method: (§1) Fluorescence quantum yields (Φf) were determined using a tetraphenyl porphyrin (TPP) solution as the fluorescence standard (Φf = 0.11 in toluene, taking into account solvent refractive index and absorption efficiencies. For the direct determination of ^1O2 quantum yield (ΦΔ), excitation was performed with a Xe-arc, the light was separated in a SPEX 1680, 0.22 µm double monochromator. Detection at 1270 nm was carried out through a PTI S/N 1565 monochromator and the emission was monitored by a liquid nitrogen cooled Ge-detector (EO-817L, North Coast Scientific Co, OH, USA). Rose Bengal (R ...

Series [3] is described as follows: Singlet oxygen production (quantum yield and lifetime). Particulars: ethanol. The class given is physicochemical. Here is the method: (§2) The setup and the protocol to evaluate the photophysical characterizations including the absorption, fluorescence, and singlet oxygen emission spectra in addition to the fluorescence and singlet oxygen lifetimes have been previously described by our team. The absorption spectra were recorded on a UV-3600 UV–vis double beam spectrophotometer (Shimadzu, Marne La Vallée, France) in the wavelength range of 200-800 nm. The measurements were performed on the molecules dispersed in ethanol in quartz cuvettes with an optical path of 10 mm. The fluorescence spectra were recorded on a Horiba Jobin Yvon Fluorolog-3 (FL3-222) spectrofluorimeter equipped with a 450W xenon lamp, a thermostated cell compartment (25 °C), a R928 (Hamamatsu, Massy, France) UV–vis photomultiplier and a liquid nitrogen cooled InGaAs infrared detector (DSS-16A020L Electro-Optical System Inc., Phoenixville, PA, USA). The excitation spectrometer used is a SPEX double grating monochromator (1200 grooves per mm blazed at 330 nm). The fluorescence was measured using the UV–vis detector through a SPEX double grating monochromator (600 grooves per mm blazed at 500 nm). The singlet oxygen production was measured using the IR detector through a SPEX double grating monochromator (600 grooves per mm blazed at 1 μm).
as §1, with “(RB) was chosen as a reference solution because of its high ^1O2 quantum yield in EtOH (ΦΔ = 0.68). The absorbance value at the excitation wavelengths (412 nm) of both the reference and the sample solutions were set to approximately 0.2 by dilution. The samples were all prepared in ethanol.” for “(R ...”
The quantum yield of singlet oxygen production is determined by the equation (2):(2) ΦΔ=ΦΔ0×I/I0×[…] where ΦΔ and ΦΔ0, I and I0, DO and DO0 are the luminescence quantum yields of singlet oxygen, the luminescence intensities and the optical densities of the sample and reference, respectively.
(§3) Fluorescence lifetimes were measured by Time-Correlated Single Photon Counting (TCSPC) using for excitation a pulsed laser diode LDH-P-C-405 coupled with a PDL 800-D driver (both from PicoQuant GmbH, Berlin, Germany) emitting at 408 nm (FWHM < 70 ps, 1 MHz) and an SPCM-AQR-15 avalanche photodiode (EG & G, Vaudreuil, Canada) coupled with a 650 nm (±10 nm) interference long-wave pass filter as the detection system. The acquisition system was a PicoHarp 300 module with a PHR-800 four-channel router (both from PicoQuant GmbH, Berlin, Germany). Fluorescence decays were recorded using the single photon counting method (four optical faced quartz cells for pure products in ethanol). Data were collected, and up to 1000 counts were accumulated in the maximum channel and analyzed using Fluofit TCSPC software (PicoQuant GmbH, Berlin, Germany) based on iterative reconvolution using a Levensberg-Marquandt algorithm. Singlet oxygen lifetime measurements have been performed on a TEMPRO-01 spectrophotometer (Horiba Jobin Yvon, Palaiseau, France). The apparatus was composed of a pulsed diode excitation source SpectraLED-415 emitting at 415 nm, a cuvette compartment, a Seya–Namioka type emission monochromator (600–2000 nm), and an H10330-45 near-infrared photomultiplier tube with a thermoelectric cooler (Hamamatsu, Massy, France) as the detection system. The system was monitored by a single photon counting controller FluoroHub-B and the software DataStation and DAS6 (Horiba Jobin Yvon, Palaiseau, France). […]

Series [4] can be described thus: Fluorescence emission (quantum yield and lifetime). The class given is physicochemical. The conditions noted are these: ethanol. Here is the method:
as §2
as §1, with “(RB) was chosen as a reference solution because of its high ^1O2 quantum yield in EtOH (ΦΔ = 0.68). The absorbance value at the excitation wavelengths (412 nm) of both the reference and the sample solutions were set to approximately 0.2 by dilution. The samples were all prepared in ethanol.” for “(R ...”
The quantum yield of fluorescence is determined by the equation (1):(1) Φf=Φf0×If/If0×[…]×(n/n0)^2 where Φf and Φf0, If and If0, DO and DO0, n and n0 are the quantum yields, intensities, optical densities and refraction indices of the sample and reference, respectively.
as §3

Series [5] can be described thus: UV-vis absorption. Particulars: ethanol, Soret band. The class given is physicochemical. Here is the method:
as §2
The photophysical properties at the different synthetic stages of the hybrid AuNRs@PEG-MI-K(Pyro)DKPPR-OH, including the peptide derivatives as intermediates, were studied and compared to that of free Pyro. These properties include the UV-vis absorption, the florescence emission (quantum yield (Φf) and lifetime (τf)) and the ^1O2 production (quantum yield (ΦΔ) and lifetime (τΔ)). To determine these properties, the optical density (OD) of the Soret band of the Pyro component (412 nm) was adjusted at about 0.2. Controls, such as TPP dissolved in toluene, as a standard for fluorescence emission, and RB dissolved in ethanol, as a standard for ^1O2 production, were used. Ethanol was chosen to dissolve the studied molecules since it is a convenient solvent for the detection of fluorescence and ^1O2 emission. […]

The target of series [6] is T1, recombinant NRP-1 protein (neuropilin-1) (UniProt O14786 22-856).
T1 construct: Neuropilin-1 (NRP-1), recombinant protein bought from Bio-Techne; Coated on the ELISA plate; also called neuropilin-1 receptor; NPR-1; source: bought: Bio-Techne
T1 sequence (looked up): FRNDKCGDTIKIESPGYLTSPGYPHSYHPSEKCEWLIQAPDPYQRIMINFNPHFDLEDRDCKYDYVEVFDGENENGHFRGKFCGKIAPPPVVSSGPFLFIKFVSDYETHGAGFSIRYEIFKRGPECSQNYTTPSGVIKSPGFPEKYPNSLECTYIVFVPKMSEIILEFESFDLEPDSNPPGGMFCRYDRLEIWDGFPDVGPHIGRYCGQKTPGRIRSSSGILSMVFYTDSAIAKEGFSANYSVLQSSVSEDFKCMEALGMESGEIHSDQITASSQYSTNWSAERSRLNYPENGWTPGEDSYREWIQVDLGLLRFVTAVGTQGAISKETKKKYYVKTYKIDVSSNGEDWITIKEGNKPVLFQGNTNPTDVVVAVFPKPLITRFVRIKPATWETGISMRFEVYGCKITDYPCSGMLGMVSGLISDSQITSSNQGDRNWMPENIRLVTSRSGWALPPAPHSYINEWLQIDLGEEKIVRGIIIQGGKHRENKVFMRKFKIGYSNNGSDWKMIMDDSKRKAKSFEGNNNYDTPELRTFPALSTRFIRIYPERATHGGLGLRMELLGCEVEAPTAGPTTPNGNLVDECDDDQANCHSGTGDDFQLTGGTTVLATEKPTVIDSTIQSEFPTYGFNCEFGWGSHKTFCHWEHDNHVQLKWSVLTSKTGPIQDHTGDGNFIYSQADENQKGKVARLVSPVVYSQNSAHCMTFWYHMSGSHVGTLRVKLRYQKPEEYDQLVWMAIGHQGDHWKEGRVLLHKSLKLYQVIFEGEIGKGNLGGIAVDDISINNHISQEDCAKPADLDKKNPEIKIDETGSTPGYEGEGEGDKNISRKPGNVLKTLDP
Kind of series: ELISA; competition; NRP-1 coated on 96 well plate at 2 μg/mL in PBS overnight at room temperature, blocked with PBS 0.5 % BSA; 5 ng/mL biotinylated VEGF-A165 in blocking buffer with 2 μg/mL heparin, with different peptide concentrations of competitor, 2 h at room temperature; streptavidin-HRP, OD 450 nm. Particulars: both partners purified. Background: In an ELISA, binding on a coated surface is turned into a signal by an enzyme label.

With `C1=Cc2nc1c(-c1ccccc1)c1nc(c(-c3ccccc3)c3ccc([nH]3)c(-c3ccccc3)c3ccc([nH]3)c2-c2ccccc2)C=C1` [TPP, tetraphenyl porphyrin], the “Φf of fluorescence standard” value in series [1] was 0.11.
As for `O=C([O-])c1c(Cl)c(Cl)c(Cl)c(Cl)c1-c1c2cc(I)c(=O)c(I)c-2oc2c(I)c([O-])c(I)cc12.[Na+].[Na+]` [Rose Bengal], the “ΦΔ of singlet oxygen reference” value in series [2] is recorded as 0.68.
As for “H-K(Pyro)DKPPR-OH [DKPPR peptide extended with Pyro-bearing lysine, free N-terminus]”, the “τΔ (singlet oxygen lifetime)” value in series [3] was found to be 14 μs. For the same molecule, in series [3] (excitation 412 nm, detection 1270 nm, Rose Bengal as reference), the “ΦΔ (singlet oxygen quantum yield)” value was determined as 0.44. The “τf (fluorescence lifetime)” value in series [4] (TCSPC, single exponential fit) is recorded as 6.8 ns. Moreover, the “Φf (fluorescence quantum yield)” value in series [4] (excitation 412 nm, TPP in toluene as standard, 25 °C) is recorded as 0.34. In addition, in series [5], the λmax was 412 nm.

B1: MI-K(Pyro)DKPPR-OH (peptide)
peptide: {Hexanoyl(6-maleimido)}-K(Pyropheophorbide(a))DKPPR-OH
SMILES: C=Cc1c(C)c2cc3nc(c4c5[nH]c(cc6nc(cc1[nH]2)C(C)=C6CC)c(C)c5C(=O)C4)[C@@H](CCC(=O)NCCCC[C@H](NC(=O)CCCCCN1C(=O)C=CC1=O)C(=O)N[C@@H](CC(=O)O)C(=O)N[C@@H](CCCCN)C(=O)N1CCC[C@H]1C(=O)N1CCC[C@H]1C(=O)N[C@@H](CCCNC(=N)N)C(=O)O)[C@@H]3C
notes: KDKPPR peptide; first lysine bears Pyro on its side chain and MI on its alpha-amine; free C-terminal acid; also called PP-PS conjugate; peptide-photosensitizer conjugate; source: synthetic peptide (Fmoc/tBu solid phase, preparative HPLC)
As a reminder, the IC50 is the point on the concentration scale where inhibition reaches its midpoint. In the case of B1, the IC50 in series [6] turned out to be 1500 nM.

B2: H-KDKPPR-OH peptide (peptide)
peptide: H-KDKPPR-OH
notes: free peptide with free N-terminus (H-) and free C-terminal acid (-OH), developed by the authors' team to target NRP-1; also called free KDKPPR peptide; source: synthetic peptide
Regarding B2, the IC50 in series [6] is 2000 nM.

B3: AuNRs@PEG-MI-K(Pyro)DKPPR-OH (other)
peptide: K(Pyropheophorbide(a))DKPPR-OH
modifications: not fully specified (N-terminus); printed as AuNRs@PEG-MI-K(Pyro)DKPPR-OH; also: MI joined by thioether to AuNRs@PEG-SH
notes: KDKPPR peptide of m4, grafted through its N-terminal maleimide onto the surface of PEGylated gold nanorods; Many peptide copies on each nanorod (multivalent); 1 mg/mL of the nanorods holds 257.7 µM of peptide; also called hybrid AuNRs; functionalized AuNRs
Consider B3, for which the concentration for half-maximal inhibition (IC50) in series [6] amounted to 1100 nM.
